Article doi:10.1101/2023.03.13.532366 (bioRxiv, 2023)
Read-outs that look alike come from different tables or passages of the source.

T1: mIL-12Rβ2_(D1-D6)-Strep-II Tag (non pre-dimerized) (mouse, UniProt P97378 24-637)
T1 sequence (looked up): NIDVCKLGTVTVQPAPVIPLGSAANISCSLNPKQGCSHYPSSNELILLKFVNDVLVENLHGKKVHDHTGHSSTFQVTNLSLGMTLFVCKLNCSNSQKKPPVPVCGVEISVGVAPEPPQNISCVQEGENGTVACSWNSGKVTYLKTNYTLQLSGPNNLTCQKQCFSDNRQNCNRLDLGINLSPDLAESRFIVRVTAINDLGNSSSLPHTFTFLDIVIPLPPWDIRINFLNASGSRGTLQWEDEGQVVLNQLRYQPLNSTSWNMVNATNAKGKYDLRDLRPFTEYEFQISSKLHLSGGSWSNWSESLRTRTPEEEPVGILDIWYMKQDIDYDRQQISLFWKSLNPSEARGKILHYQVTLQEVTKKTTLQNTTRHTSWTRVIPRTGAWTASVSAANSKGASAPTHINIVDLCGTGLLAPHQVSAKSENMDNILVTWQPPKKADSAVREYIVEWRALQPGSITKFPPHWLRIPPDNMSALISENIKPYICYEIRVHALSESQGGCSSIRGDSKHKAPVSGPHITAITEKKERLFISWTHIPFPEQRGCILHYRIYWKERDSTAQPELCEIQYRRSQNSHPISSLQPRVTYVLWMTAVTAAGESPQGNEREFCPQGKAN

T2: mIL-12B (p40), untagged, of the crystallised mIL-12 (mouse, UniProt P43432 23-335)
T2 sequence (looked up): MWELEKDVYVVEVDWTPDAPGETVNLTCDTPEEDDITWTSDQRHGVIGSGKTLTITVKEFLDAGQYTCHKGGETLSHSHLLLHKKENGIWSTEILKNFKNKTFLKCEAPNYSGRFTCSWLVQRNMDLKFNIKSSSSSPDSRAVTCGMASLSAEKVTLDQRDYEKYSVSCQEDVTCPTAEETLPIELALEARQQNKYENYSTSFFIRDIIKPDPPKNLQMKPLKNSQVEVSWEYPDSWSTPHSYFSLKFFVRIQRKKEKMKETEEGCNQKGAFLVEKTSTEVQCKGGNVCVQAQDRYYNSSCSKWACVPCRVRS

T3: hIL-12B (p40), subunit of hIL-23 in the cryo-EM complex (human, UniProt P29460 23-328)
T3 sequence (looked up): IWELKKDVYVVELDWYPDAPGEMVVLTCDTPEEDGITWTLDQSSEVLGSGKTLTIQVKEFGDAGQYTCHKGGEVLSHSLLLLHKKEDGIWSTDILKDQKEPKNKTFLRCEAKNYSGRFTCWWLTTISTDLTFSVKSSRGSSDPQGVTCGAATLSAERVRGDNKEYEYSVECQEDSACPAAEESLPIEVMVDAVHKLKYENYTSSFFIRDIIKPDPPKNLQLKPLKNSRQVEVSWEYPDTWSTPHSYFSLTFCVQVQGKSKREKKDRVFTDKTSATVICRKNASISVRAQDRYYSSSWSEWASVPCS

T4: hIL-12B (p40) of the crystallised hIL-23 (hIL-23a:hIL-12b co-transfection) (human, UniProt P29460 23-328)
T4 sequence (looked up): T3 sequence (looked up)

B1: mIL-12A (p35), untagged subunit of mIL-12 in the cryo-EM complexes (natural protein, mouse, UniProt P43431 23-215, looked up)
chain: RVIPVSGPARCLSQSRNLLKTTDDMVKTAREKLKHYSCTAEDIDHEDITRDQTSTLKTCLPLELHKNESCLATRETSSTTRGSCLPPQKTSLMMTLCLGSIYEDLKMYQTEFQAINAALQNHNHQQIILDKGMLVAIDELMQSLNHNGETLRQKPPVGEADPYRVKMKLCILLHAFSTRVVTINRVMGYLSSA
B2: mIL-12A (p35) of the crystallised mIL-12 (mIL-12a-AviTag-His6, digested with Caspase-3) (natural protein, mouse, UniProt P43431 23-215, looked up)
chain: B1 chain
B3: hIL-23A (p19), subunit of hIL-23 in the cryo-EM complex (natural protein, human, UniProt Q9NPF7 20-189, looked up)
chain: RAVPGGSSPAWTQCQQLSQKLCTLAWSAHPLVGHMDLREEGDEETTNDVPHIQCGDGCDPQGLRDNSQFCLQRIHQGLIFYEKLLGSDIFTGEPSLLPDSPVGQLHASLLGLSQLLQPEGHHWETQQIPSLSPSQPWQRLLLRFKILRSLQAFVAVAARVFAHGAATLSP
B4: hIL-23A (p19) of the crystallised hIL-23 (hIL-23a:hIL-12b co-transfection) (natural protein, human, UniProt Q9NPF7 20-189, looked up)
chain: B3 chain
B5: Fab4_(CrystalKappa) (Crystal Kappa form of Fab4) (Fab, V domains shown)
VH: QVQLVESGGGVVQPGRSLRLSCAASGFTFTSYGMSWVRQAPGKGLEWVAGISYDASDTEYADSVKGRFTISRDNSKNTLYLQMNSLRAEDTAVYYCARSPDYIIDYGFDYWGRGTLVTVSS
VL: AIQMTQSPSSLSASVGDRVTITCRASQGISSDLAWYQQKPGKAPKLLIYDASSLQSGVPSRFSGSGSGTDFTLTISSLQPEDFATYYCQQYWWYPFTFGQGTKVEIK
B6: Fab4 (wild-type; antigen-binding portion of an antagonistic anti-IL-12Rβ1 antibody) (Fab, V domains shown)
VH: B5 VH
VL: B5 VL
B7: mIL-12Rβ1_(D1-D5)-Strep-II Tag (non pre-dimerized) (receptor, mouse, UniProt Q60837 20-565, looked up)
chain: QLGASGPGDGCCVEKTSFPEGASGSPLGPRNLSCYRVSKTDYECSWQYDGPEDNVSHVLWCCFVPPNHTHTGQERCRYFSSGPDRTVQFWEQDGIPVLSKVNFWVESRLGNRTMKSQKISQYLYNWTKTTPPLGHIKVSQSHRQLRMDWNVSEEAGAEVQFRRRMPTTNWTLGDCGPQVNSGSGVLGDIRGSMSESCLCPSENMAQEIQIRRRRRLSSGAPGGPWSDWSMPVCVPPEVLPQAKIKFLVEPLNQGGRRRLTMQGQSPQLAVPEGCRGRPGAQVKKHLVLVRMLSCRCQAQTSKTVPLGKKLNLSGATYDLNVLAKTRFGRSTIQKWHLPAQELTETRALNVSVGGNMTSMQWAAQAPGTTYCLEWQPWFQHRNHTHCTLIVPEEEDPAKMVTHSWSSKPTLEQEECYRITVFASKNPKNPMLWATVLSSYYFGGNASRAGTPRHVSVRNQTGDSVSVEWTASQLSTCPGVLTQYVVRCEAEDGAWESEWLVPPTKTQVTLDGLRSRVMYKVQVRADTARLPGAWSHPQRFSFEVQIS
B8: mIL-12B (p40), subunit of mIL-12 in the cryo-EM complexes (mIL-12b-Casp3-AviTag-His6, tags cleaved) (natural protein, mouse, UniProt P43432 23-335, looked up)
chain: T2 sequence (looked up)
B9: murine IL-12 (mIL-12), heterodimer of mIL-12A (p35) and mIL-12B (p40), as in the cryo-EM receptor complexes (complex, mouse)
chain 1: B1 chain
chain 2: T2 sequence (looked up)

What was measured:
[1] = target: T1, mIL-12Rβ2_(D1-D6)-Strep-II Tag (non …); assay: cryo-EM structure
[2] = target: B8; assay: cryo-EM structure
[3] = target: T2, mIL-12B (p40), untagged, of the …; assay: crystal structure
[4] = target: hIL-23R-CaM (complete extracellular segment of human IL-23 receptor fused to calmodulin) (human, UniProt Q5VWK5 24-355; P0DP23 5-149); assay: cryo-EM structure
[5] = target: T3, hIL-12B (p40), subunit of hIL-23 in the …; assay: cryo-EM structure
[6] = target: T4, hIL-12B (p40) of the crystallised …; assay: crystal structure
[7] = target: T5, hIL-12Rβ1_(D3-D5) (domains 3 to 5 of human IL-12 receptor β1) (human, UniProt P42701); assay: crystal structure
[8] = target: T5, hIL-12Rβ1_(D3-D5) (domains 3 to 5 of …); assay: crystal structure; remark: listed apart in the source
[9] = target: B7; assay: cryo-EM structure

Binder: B1
binding result [1]: binds
binding result [2]: binds

Binder: B2
binding result [3]: binds

Binder: B3
binding result [4]: binds
binding result [5]: binds

Binder: B4
binding result [6]: binds

Binder: B5
binding result [7]: binds

Binder: B6
binding result [8]: binds

Binder: B7
binding result [1]: binds

Binder: B8
binding result [9]: binds

Binder: B9
binding result [1]: binds
binding result [9]: binds
